The source of these data is article PMC10978878 (Nature Communications, 2024).

In assay [1] the target is BA.2.12.1 spike, recombinant trimer that retains the native sequence (SARS-CoV-2, UniProt P0DTC2). Nature of the assay: cryo-EM structure. The conditions noted are these: both partners purified.
In assay [2] the target is BA.4 spike, recombinant trimeric S-twin-Strep, prefusion stabilized (SARS-CoV-2, UniProt P0DTC2). Briefly: cryo-EM structure. Conditions: both partners purified.

B1: SD1-2 Fab (Fab, V domains shown)
VH: QVQLVQSGPGLVKPSQTLSLTCSVSGDSISSGTYYWSWIRLPAGQGLEWIGRVHSSGSTSYNPSLKSRVTISVDTSKNNFSLKLSSVTAADTAVYYCVRLDNCSAGYCHAFDIWGQGTMVTVSS
VL: QSVLTQPASVSGSPGQSITISCTGTSSDVGSYNLVSWYQQHPGKAPKVMIYEVSKWPSGVSNRFSGSKSGNTASLTISGLQAEDEADYYCCSYAGSGTYVFGTGTKVTVL
What is called stoichiometry N is a count of units in the complex or per binding partner. As for B1, the “stoichiometry N” value in assay [1] turned out to be 3 Fab per spike trimer.

B2: SD1-3 Fab (Fab, V domains shown)
VH: QVQLVESGGGLVQPGGSLRLSCTASGVTFSSYAMSWVRQAPGKGLEWVSGISGSGDSTYYADSVKGRFTISRDNSKNTLYLQMNSLRVEDTAVYYCATHYCSGGSCPFDYWGQGTLVTVSS
VL: PSALTQPPSVSVSPGQTASITCSGDKLGNKYAYWYQQKPGQSPVLVIFQDTMRPSGIPERFSASNSGNTATLTISGTQSIDEADYYCQAWDSNTAVFGGGTKLTVL
With B2, the “stoichiometry N” value in assay [1] was 3 Fab per spike trimer.

B3: SD1-1 Fab (Fab, V domains shown)
VH: QVQLVESGPGLVKPSETLSLTCSVSGGSIDNFYWSWIRQPPGKGLEWIGNIYYGGSGNYNPSLKSRVTISVDTSKNQVSLKLRSVTAADTAVYYCARDSVWYTGSYGLIYWGPGTLVTVSS
VL: SVVTQPASVSGSPGQSITISCTGTSSDVGSYNLVSWFQQHPGKAPKLMIYEVTKRPSGISNRFSGSKSGNTASLTISRLQAEDEADYYCCSYAGSSTVVFGGGTKLTVL
Take B3: the “stoichiometry N” value in assay [2] is 3 Fab per spike trimer.
